According to paper PMC13367182:

Key:
[1] = molecular target: mononucleosome with deletion of the histone H3 tail (human) (UniProt P04908); assay: AlphaScreen or HTRF
[2] = molecular target: mononucleosome with deletion of the histone H4 tail (human) (UniProt P04908); assay: AlphaScreen or HTRF

## HIV-1 intasome assembled in the presence of LEDGF/p75 (from UniProt O75475 1-530) (complex)
[1]
  decrease in the bridging signal against native nucleosomes: 20%
[2]
  decrease in the bridging signal against native nucleosomes: 20%
